Among the data in US20020088015A1 are WT1-mediated transcriptional repression of pGAL4TKCAT (CAT assay) values, retold here.

This test has as its target GAL4-WT1 (WT1 fused to the DNA-binding domain of GAL4) (UniProt P04386). In words: cell-based or functional assay.

In turn, “par-4 expressed from pCMV-par-4 in transfected cells” came in with a WT1-mediated transcriptional repression of pGAL4TKCAT (CAT assay) of 3 fold.
